Laboratory results taken from paper PMC10397321.

Assays:
[1] = target: photosystem I (PSI) monomer (Synechocystis sp. PCC 6803) (UniProt P29254)
[2] = target: photosystem I (PSI) monomer (Synechocystis sp. PCC 6803) (UniProt P29254); assay: cryo-EM structure; native PSI3-IsiA18 supercomplex co-purified from Synechocystis sp. PCC 6803 membranes in DDM; 30 mM Tricine-NaOH pH 8, 75 mM NaCl, 0.02% DDM; 1.5 mg chlorophyll/ml; vitrified on holey carbon grids; C3 symmetry expansion and multibody refinement

Sequence of iron-stressed induced protein A (IsiA) (Q55274 whole entry): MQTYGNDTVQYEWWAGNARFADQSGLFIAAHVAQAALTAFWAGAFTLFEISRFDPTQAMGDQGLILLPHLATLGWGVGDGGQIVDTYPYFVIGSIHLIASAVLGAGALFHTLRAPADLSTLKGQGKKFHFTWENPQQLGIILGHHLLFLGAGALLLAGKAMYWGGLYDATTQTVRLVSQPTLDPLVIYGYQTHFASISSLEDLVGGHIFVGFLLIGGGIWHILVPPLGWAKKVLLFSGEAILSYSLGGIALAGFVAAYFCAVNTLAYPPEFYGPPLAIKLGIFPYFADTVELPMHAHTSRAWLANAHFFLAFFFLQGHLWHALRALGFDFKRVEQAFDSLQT
Sequence of photosystem I (PSI) monomer (Synechocystis sp. PCC 6803) (P29254 whole entry, looked up): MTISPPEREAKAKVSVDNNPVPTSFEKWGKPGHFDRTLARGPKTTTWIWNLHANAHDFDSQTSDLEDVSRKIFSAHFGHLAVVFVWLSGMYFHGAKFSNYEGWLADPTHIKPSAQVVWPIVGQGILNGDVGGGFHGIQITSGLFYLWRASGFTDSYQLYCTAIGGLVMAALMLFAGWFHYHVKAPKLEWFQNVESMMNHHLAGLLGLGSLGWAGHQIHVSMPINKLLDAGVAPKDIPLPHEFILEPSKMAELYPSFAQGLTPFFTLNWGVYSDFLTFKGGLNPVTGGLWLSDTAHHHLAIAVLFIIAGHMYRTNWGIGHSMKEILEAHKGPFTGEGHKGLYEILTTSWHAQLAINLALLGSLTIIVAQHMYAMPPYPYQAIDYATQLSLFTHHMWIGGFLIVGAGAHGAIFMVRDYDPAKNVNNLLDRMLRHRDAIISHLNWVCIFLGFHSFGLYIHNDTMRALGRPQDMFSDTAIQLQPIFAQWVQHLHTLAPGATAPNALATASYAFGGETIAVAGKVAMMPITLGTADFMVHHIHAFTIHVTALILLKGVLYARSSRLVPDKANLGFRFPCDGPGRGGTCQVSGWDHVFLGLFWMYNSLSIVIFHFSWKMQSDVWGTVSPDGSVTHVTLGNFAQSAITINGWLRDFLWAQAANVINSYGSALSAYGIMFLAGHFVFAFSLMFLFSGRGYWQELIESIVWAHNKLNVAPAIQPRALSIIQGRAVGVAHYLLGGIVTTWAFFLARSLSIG

single-molecule fluorescence lifetime: share of complexes with bi-exponential decay at all intensity levels (partially coupled, population II) [1] [%] | single-molecule fluorescence lifetime: share of complexes with fast mono-exponential decay at all intensity levels (continuously coupled) [1] [%] | single-molecule fluorescence lifetime: share of complexes with mono-exponential levels interleaved with bi-exponential levels (transiently coupled, population I) [1] [%] | stoichiometry N [2] | Substance
4 | 60 | 36 |  | iron-stressed induced protein A (IsiA) (from UniProt Q55274 1-342) (natural protein)
 |  |  | 3 | photosystem I (PSI) monomer (from UniProt P29254 1-751; P29255 1-731; P29256 24-165; Q55329 1-40; P72712 1-86) (complex)
